Test results: patent US20180244787A1 (Sanofi, published 2018)
Where a chain is given by its changes, count along the chain named. Each block holds one binder with its values, some of them ahead of it.

Target: T1, recombinant human CXCR3 (human, UniProt P49682 1-368, limits assumed)
T1 construct: also called C-X-C motif chemokine receptor 3
T1 sequence (looked up): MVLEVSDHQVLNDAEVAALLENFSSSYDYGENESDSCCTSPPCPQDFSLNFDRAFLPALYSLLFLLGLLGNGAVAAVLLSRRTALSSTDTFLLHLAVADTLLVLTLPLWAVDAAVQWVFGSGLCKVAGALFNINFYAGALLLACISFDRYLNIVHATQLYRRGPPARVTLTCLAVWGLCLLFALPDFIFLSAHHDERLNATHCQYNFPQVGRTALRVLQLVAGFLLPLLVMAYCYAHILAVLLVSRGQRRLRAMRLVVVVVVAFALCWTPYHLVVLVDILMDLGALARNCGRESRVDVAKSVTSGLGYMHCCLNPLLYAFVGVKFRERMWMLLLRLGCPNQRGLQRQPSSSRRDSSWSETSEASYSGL
Assay: binding kinetics; method and antigen not given

B2: humanized clone 53 HuAntibody 30 (antibody, V domains shown)
VH: EVQLLESGGGLVQPGGSLRLSCAASGFTFTSYAMSWVRQAPGKGLEWVAVISHGGTYTYYADSVKGRFTISRDNAKNTLYLQMNSLRAEDTAVYYCARHPIYSGNYQGYFDYWGQGTLVTVSS
VL: DIQLTQSPSFLSASVGDRVTITCRASSGVNYLYWYQQKPGKAPKLWIYFTSTLASGVPSRFSGSGSGNEYTLTISSLQPEDFATYYCQQFTSSPYTFGGGTKLEIK
notes: humanized anti-human CXCR3 mAb
- Kd: 1.34 nM
- koff: 0.000126 s⁻¹
- kon: 93700 M⁻¹ s⁻¹

B3: humanized clone 53 HuAntibody 35 (antibody, V domains shown)
VH: B2 VH with V50T, A61P, V93M
VL: B2 VL with G99Q
notes: as for B2
- Kd: 0.0456 nM
- koff: 4.73e-06 s⁻¹
- kon: 102000 M⁻¹ s⁻¹

B4: humanized clone 53 HuAntibody 24 (antibody, V domains shown)
VH: B2 VH with V50T, A61P, V93M
VL: B2 VL with S55P
notes: as for B2
- Kd: 0.0614 nM
- koff: 6.16e-06 s⁻¹
- kon: 101000 M⁻¹ s⁻¹

B5: humanized clone 53 HuAntibody 31 (antibody, V domains shown)
VH: B2 VH with V50T, A61P, V93M
VL: B2 VL
notes: as for B2
- Kd: 0.449 nM
- koff: 5e-05 s⁻¹
- kon: 111000 M⁻¹ s⁻¹

B7: humanized clone 53 HuAntibody 34 (antibody, V domains shown)
VH: B2 VH
VL: B2 VL with G99Q
notes: as for B2
- Kd: 1.03 nM
- koff: 9.19e-05 s⁻¹
- kon: 88900 M⁻¹ s⁻¹

B8: humanized clone 53 HuAntibody 33 (antibody, V domains shown)
VH: B2 VH with V50T, A61P
VL: B2 VL
notes: as for B2
- Kd: 0.656 nM

B11: humanized clone 53 HuAntibody 29 (antibody, V domains shown)
VH: B2 VH with V50T, A61P
VL: B2 VL with S55P, G99Q
notes: as for B2
- Kd: 0.303 nM
- koff: 3.5e-05 s⁻¹
- kon: 115000 M⁻¹ s⁻¹

More lines, in order of falling Kd, values ahead:

- Kd: 0.623 nM
- koff: 6.21e-05 s⁻¹
- kon: 99500 M⁻¹ s⁻¹
B10: humanized clone 53 HuAntibody 25 (antibody, V domains shown)
VH: B2 VH with V50T, A61P
VL: B2 VL with S55P
notes: as for B2

- Kd: 0.537 nM
- koff: 5.46e-05 s⁻¹
- kon: 101000 M⁻¹ s⁻¹
B9: humanized clone 53 HuAntibody 26 (antibody, V domains shown)
VH: B2 VH
VL: B2 VL with S55P, G99Q
notes: as for B2

- Kd: 0.322 nM
- koff: 2.45e-05 s⁻¹
- kon: 75600 M⁻¹ s⁻¹
B1: humanized clone 53 HuAntibody 23 (antibody, V domains shown)
VH: B2 VH
VL: B2 VL with S55P
notes: as for B2

- Kd: 0.0737 nM
- koff: 8.34e-06 s⁻¹
- kon: 113000 M⁻¹ s⁻¹
B6: humanized clone 53 HuAntibody 27 (antibody, V domains shown)
VH: B2 VH with V50T, A61P, V93M
VL: B2 VL with S55P, G99Q
notes: as for B2
